In patent publication US20250042992A1 (University of California, published 2025):
One block for each molecule: values may come before it.

Legend:
[1] = biological target: human-mouse chimeric DLK1 HM7-mGFP on HEK293T cells (region 7 of human DLK1 long form replaced with mouse); assay: direct flow cytometry, control antibody at 20ug/ml, cells 848 HEK293T DLK1 HM7-mGFP; no ab 1,583.50; same antibody on HEK293T parental 4,432.00
[2] = biological target: human DLK1 short form (isoform 2, DLK1-MB) fused to mGFP, expressed on HEK293T cells (human) (UniProt P80370); assay: direct flow cytometry, AF647-labelled control antibody at 20ug/ml, cells 832-HEK293T DLK1 Iso2-mGFP mass pop (short form); same antibody on HEK293T parental 21,331.00
[3] = biological target: human-mouse chimeric DLK1 HM6-mGFP on HEK293T cells (region 6 of human DLK1 long form replaced with mouse); assay: direct flow cytometry, control antibody at 20ug/ml, cells 851 HEK293T DLK1 HM6-mGFP; no ab 1,992.00; same antibody on HEK293T parental 4,432.00
[4] = biological target: human DLK1 long form (isoform 1, DLK1-FL) fused to mGFP, overexpressed on HEK293T cells (human) (UniProt P80370); assay: indirect flow cytometry, 1° control antibody at 4ug/ml detected with an AF-647 secondary antibody, cells HEK293T DLK1 mGFP G06 (long form); same antibody on HEK293T parental 3,130.00
[5] = biological target: human DLK1 long form (isoform 1, DLK1-FL) fused to mGFP, overexpressed on HEK293T cells (human) (UniProt P80370); assay: direct flow cytometry, AF647-labelled control antibody at 20ug/ml, cells HEK293T DLK1 mGFP G06 (long form); same antibody on HEK293T parental 21,331.00
[6] = biological target: human DLK1 long form (isoform 1, DLK1-FL) fused to mGFP, overexpressed on HEK293T cells (human) (UniProt P80370); assay: direct flow cytometry, control antibody at 20ug/ml, cells HEK293T DLK1 mGFP G06 (long form); no ab 1,649.00; same antibody on HEK293T parental 4,432.00
[7] = biological target: human-mouse chimeric DLK1 HM3-mGFP on HEK293T cells (region 3 of human DLK1 long form replaced with mouse); assay: direct flow cytometry, control antibody at 20ug/ml, cells 836 HEK293T DLK1HM3-mGFP; no ab 1,657.50; same antibody on HEK293T parental 4,432.00
[8] = biological target: human-mouse chimeric DLK1 HM8-mGFP on HEK293T cells (region 8 of human DLK1 long form replaced with mouse); assay: direct flow cytometry, control antibody at 20ug/ml, cells 849 HEK293T DLK1 HM8-mGFP; no ab 1,653.50; same antibody on HEK293T parental 4,432.00
[9] = biological target: human-mouse chimeric DLK1 HM4-mGFP on HEK293T cells (region 4 of human DLK1 long form replaced with mouse); assay: direct flow cytometry, control antibody at 20ug/ml, cells 837 HEK293T DLK1HM4-mGFP; no ab 1,516.00; same antibody on HEK293T parental 4,432.00
[10] = biological target: human DLK1 short form (isoform 2, DLK1-MB) fused to mGFP, expressed on HEK293T cells (human) (UniProt P80370); assay: indirect flow cytometry, 1° control antibody at 4ug/ml detected with an AF-647 secondary antibody, cells 832-HEK293T DLK1 Iso2-mGFP mass pop (short form); same antibody on HEK293T parental 3,130.00
[11] = biological target: human-mouse chimeric DLK1 HM2-mGFP on HEK293T cells (region 2 of human DLK1 long form replaced with mouse); assay: direct flow cytometry, control antibody at 20ug/ml, cells 835 HEK293T DLK1HM2-mGFP; no ab 1,251.00; same antibody on HEK293T parental 4,432.00
[12] = biological target: human-mouse chimeric DLK1 HM5-mGFP on HEK293T cells (region 5 of human DLK1 long form replaced with mouse); assay: direct flow cytometry, control antibody at 20ug/ml, cells 850 HEK293T DLK1 HM5-mGFP; no ab 1,807.00; same antibody on HEK293T parental 4,432.00
[13] = biological target: human-mouse chimeric DLK1 HM1-mGFP on HEK293T cells (region 1 of human DLK1 long form replaced with mouse); assay: direct flow cytometry, control antibody at 20ug/ml, cells 834 HEK293T DLK1HM1-mGFP; no ab 1,385.00; same antibody on HEK293T parental 4,432.00
[14] = biological target: human DLK1 short form (isoform 2, DLK1-MB) fused to mGFP, expressed on HEK293T cells (human) (UniProt P80370); assay: direct flow cytometry, AF647-labelled antibody at 20ug/ml, cells 832-HEK293T DLK1 Iso2-mGFP mass pop (short form); same antibody on HEK293T parental 17,562.00; hIgG1-AF647 on the same cells 29,714.00
[15] = biological target: human DLK1 short form (isoform 2, DLK1-MB) fused to mGFP, expressed on HEK293T cells (human) (UniProt P80370); assay: indirect flow cytometry, 1° antibody at 4ug/ml detected with an AF-647 secondary antibody, cells 832-HEK293T DLK1 Iso2-mGFP mass pop (short form); same antibody on HEK293T parental 2,827.00; hIgG1 on the same cells 2,895.00
[16] = biological target: human DLK1 long form (isoform 1, DLK1-FL) fused to mGFP, overexpressed on HEK293T cells (human) (UniProt P80370); assay: indirect flow cytometry, 1° antibody at 4ug/ml detected with an AF-647 secondary antibody, cells HEK293T DLK1 mGFP G06 (long form); same antibody on HEK293T parental 2,827.00
[17] = biological target: DLK1 ECD-mFc long form (human DLK1-FL, isoform 1) (human) (UniProt P80370); assay: ELISA, plate coated with long form of DLK1 ECD-mFc (isoform 1), anti-human IgG Fc-HRP, OD450nm
[18] = biological target: human DLK1 long form (isoform 1, DLK1-FL) fused to mGFP, overexpressed on HEK293T cells (human) (UniProt P80370); assay: direct flow cytometry, AF647-labelled antibody at 20ug/ml, cells HEK293T DLK1 mGFP G06 (long form); same antibody on HEK293T parental 17,562.00
[19] = biological target: DLK1 ECD-mFc long form (human DLK1-FL, isoform 1) (human) (UniProt P80370); assay: ELISA, plate coated with DLK1 ECD-mFc long form, anti-human IgG Fc-HRP detection
[20] = biological target: human DLK1 endogenously expressed on COR-L279 small cell lung carcinoma cells (human) (UniProt P80370); assay: flow cytometry, (His)6-tagged scFv detected with AF647-anti-His tag 2° Ab, CORL279 (DLK1+) cells; same scFv on M202 (DLK1-) 9,460.00; 2° Ab only on CORL279 63,034.00; no ab 4,394.00
[21] = biological target: human DLK1 endogenously expressed on COR-L279 small cell lung carcinoma cells (human) (UniProt P80370); assay: flow cytometry, (His)6-tagged scFv detected with AF647-anti-His tag 2° Ab, CORL279 (DLK1+) cells; same scFv on M202 (DLK1-) 8,072.00; 2° Ab only on CORL279 63,034.00; no ab 4,394.00
[22] = biological target: human DLK1 endogenously expressed on COR-L279 small cell lung carcinoma cells (human) (UniProt P80370); assay: flow cytometry, ADC at 20µg/ml, row CORL-279 (SCLC, DLK+); row M202 of the same block: 4,385.0
[23] = biological target: human DLK1 endogenously expressed on COR-L279 small cell lung carcinoma cells (human) (UniProt P80370); assay: flow cytometry, (His)6-tagged scFv detected with AF647-anti-His tag 2° Ab, CORL279 (DLK1+) cells; same scFv on M202 (DLK1-) 11,680.00; 2° Ab only on CORL279 63,034.00; no ab 4,394.00

human DLK1 long form (isoform 1, DLK1-FL) fused to mGFP, overexpressed on HEK293T cells (human), sequence (P80370 24-383): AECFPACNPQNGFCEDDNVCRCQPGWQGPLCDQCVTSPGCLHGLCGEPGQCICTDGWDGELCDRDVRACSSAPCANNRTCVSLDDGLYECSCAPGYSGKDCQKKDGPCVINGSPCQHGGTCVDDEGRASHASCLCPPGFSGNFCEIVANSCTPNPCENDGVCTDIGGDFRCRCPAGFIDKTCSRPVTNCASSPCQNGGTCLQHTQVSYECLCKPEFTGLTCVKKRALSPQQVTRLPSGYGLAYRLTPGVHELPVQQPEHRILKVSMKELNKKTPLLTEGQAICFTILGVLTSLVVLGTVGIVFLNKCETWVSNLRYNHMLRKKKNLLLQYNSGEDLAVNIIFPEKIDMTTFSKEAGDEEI
human DLK1 short form (isoform 2, DLK1-MB) fused to mGFP, expressed on HEK293T cells (human), sequence (P80370 other isoform, or with tags, fused parts or gaps): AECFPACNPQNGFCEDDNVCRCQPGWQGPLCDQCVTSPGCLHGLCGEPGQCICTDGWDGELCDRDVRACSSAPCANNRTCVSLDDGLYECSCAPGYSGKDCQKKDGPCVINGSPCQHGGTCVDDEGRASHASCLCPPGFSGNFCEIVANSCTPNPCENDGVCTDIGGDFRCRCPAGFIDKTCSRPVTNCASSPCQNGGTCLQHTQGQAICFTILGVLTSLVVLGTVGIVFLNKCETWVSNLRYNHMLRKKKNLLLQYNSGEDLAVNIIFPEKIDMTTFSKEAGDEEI
DLK1 ECD-mFc long form (human DLK1-FL, isoform 1) (human), sequence (P80370 24-303): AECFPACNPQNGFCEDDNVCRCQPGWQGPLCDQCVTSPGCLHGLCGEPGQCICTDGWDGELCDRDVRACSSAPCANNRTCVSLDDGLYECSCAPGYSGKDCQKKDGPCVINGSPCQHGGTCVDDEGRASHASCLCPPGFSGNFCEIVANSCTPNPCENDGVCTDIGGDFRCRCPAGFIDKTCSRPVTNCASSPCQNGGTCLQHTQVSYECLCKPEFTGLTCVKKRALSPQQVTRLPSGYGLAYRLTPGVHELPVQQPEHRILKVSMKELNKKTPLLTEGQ
human-mouse chimeric DLK1 HM8-mGFP on HEK293T cells (region 8 of human DLK1 long form replaced with mouse), sequence (chain, as listed by the source mutant limits assumed, form in doubt): as the sequence (P80370 24-383) above, with A93T, Y96F, K103H, D105A, T120A, R127Q counted along it
human-mouse chimeric DLK1 HM5-mGFP on HEK293T cells (region 5 of human DLK1 long form replaced with mouse), sequence (chain, as listed by the source mutant limits assumed, form in doubt): as the sequence (P80370 24-383) above, with F4D, A6P, N8D, N11Y, D16A, Q23H, P24V, Q27E counted along it

Molecule: non-targeting human IgG1 negative control antibody
FL4H/AF-647 signal [1]: 5270 | FL4H/AF-647 signal [2]: 29700 | FL4H/AF-647 signal [3]: 6460 | FL4H/AF-647 signal [4]: 4120 | FL4H/AF-647 signal [5]: 47900 | FL4H/AF-647 signal [6]: 9870 | FL4H/AF-647 signal [7]: 8770 | FL4H/AF-647 signal [8]: 4360 | FL4H/AF-647 signal [9]: 8480 | FL4H/AF-647 signal [10]: 2900 | FL4H/AF-647 signal [11]: 8510 | FL4H/AF-647 signal [12]: 7660 | FL4H/AF-647 signal [13]: 8760

B1: LegoChem 18A5 benchmark anti-DLK1 antibody (antibody, from another filing, V domains shown)
VH: QVQLVQSGGAVVQPGHSLRLSCEASGFKFKDYGMHWVRQAPGKGLEWLAVISHDGRNKNYADSVKGRLTISRDNSKNTLSFQMNSLRAEDTAVYYCVRDWSYAFDIWGQGTLVTVSS
VL: DIQMTQSPSFLSASVGDRVNITCRASQDISRRLAWYQQKPGKAPKLLIYGAASLQSAVASRFSGSGSGTEFTLTISSLQPEDFANYYCQQIYTTPLTFGGGTKVEIK
FL4H/AF-647 signal [14]: 43500 | FL4H/AF-647 signal [15]: 3350 | FL4H/AF-647 signal [16]: 20400 | EC50 [17]: 17.9 nM | FL4H/AF-647 signal [18]: 153000 | EC50 [19]: 17.9 nM

B2: 04-0547-h2scfv, single chain Fv of 04-0547-h2 DLK1 antibody, with C-terminal (His)6 tag (scFv)
scFv: DIQMTQSPSSLSASVGDRVTITCRASHDVSTAVAWYQQKPGKAPKLLIYSASYRYTGVPSRFSGSGSGTDFTLTISSLQPEDFATYYCQQHYRIPLTFGQGTKLEIKGGGGSGGGGSGGGGSEVQLVESGGGLVQPGGSLRLSCAASGFSISDYYMAWVRQAPGKGLEWVANINYDGTNTYYADSVKGRFTISRDNSKNTLYLQMNSLRAEDTAVYYCVRSYYYYGMEYWGQGTTVTVSSHHHHHH
average AF-647 fluorescence (FL4-H) [20]: 763000

B5: 04-0561-F1scfv, single chain Fv of 04-0561-F1 DLK1 antibody, with C-terminal (His)6 tag (scFv)
scFv: DIVMTQSPDSLAVSLGERVTMNCKSSQSLLQSSNQKNYLAWYQQKPGQPPKLLVYFASTRESGVPDRFSGSGSGTDFTLTISSVQAEDVAVYYCQQHYSIPLTFGQGTKLEIKGGGGSGGGGSGGGGSQVQLQESGPGLVKPSETLSLTCTVSGFSLSIYSVHWVRQPPGKGLEWIGLIWGGGSTDYNPSLKSRVTISKDTSKNQVSLKLSSVTAADTAVYYCARKEGNYLWFAYWGQGTLVTVSSHHHHHH
average AF-647 fluorescence (FL4-H) [23]: 1.43e+06

Next, values leading:

average AF-647 fluorescence (FL4-H) [21]: 622000
B3: 04-0562-h10scfv, single chain Fv of 04-0562-h10 DLK1 antibody, with C-terminal (His)6 tag (scFv)
scFv: DIVMTQSPLSLPVTPGEPASISCRSSQSLVHINGNTYLHWYLQKPGQSPQLLIYKVSNRFSGVPDRFSGSGSGTDFTLKISRVEAEDVGVYYCSQTTHVPWTFGQGTKLEIKGGGGSGGGGSGGGGSQVQLQESGPGLVKPSETLSLTCTVSGFSLTSYGVSWVRQPPGKGLEWIGVIWGDGSTSYNPSLKSRVTISKDTSKNQVSLKLSSVTAADTAVYYCAKPDGPLGQGTLVTVSSHHHHHH

ADC Binding Activity by Flow Cytometry (20µg/ml) [22]: 225000
B4: 04-0547-h2-MMAE-AF647 (04-0547-h2 antibody conjugated to both MMAE and Alexa Fluor 647) (antibody, IgG1, V domains shown)
VH: EVQLVESGGGLVQPGGSLRLSCAASGFSISDYYMAWVRQAPGKGLEWVANINYDGTNTYYADSVKGRFTISRDNSKNTLYLQMNSLRAEDTAVYYCVRSYYYYGMEYWGQGTTVTVSS
VL: DIQMTQSPSSLSASVGDRVTITCRASHDVSTAVAWYQQKPGKAPKLLIYSASYRYTGVPSRFSGSGSGTDFTLTISSLQPEDFATYYCQQHYRIPLTFGQGTKLEIK
modifications: MC-VC-PAB-MMAE on free thiols of cysteines (see heavy chain); MC-VC-PAB-MMAE on free thiols of cysteines (about 90% at reduced interchain disulfides, average 4 MMAE per antibody); Alexa Fluor 647 label
